Series [1] addresses cyclomarin A (Streptomyces sp. CNB-982). The series is described as follows: ITC; 50 uM (monomer) ClpC1 NTD or ClpC2 titrated into 5 uM CymA at 37 C; 50 mM HEPES-KOH pH 7.5, 150 mM KCl, 9% DMSO, 1 mM EDTA; one-site binding model.
Series [2] concerns DNA probe containing the clpC2 operator site. The series is described as follows: EMSA, ClpC1 binding to DNA. On the technique in general: Mobility shift assays separate free from complexed probe on a gel.
The next series relates to ClpC1 NTD. To be noted: cited from earlier work.
The next series concerns the target ClpC1 (Mycobacterium tuberculosis, UniProt P9WPC9 1-848). The series is described as follows: EMSA; 1-25 uM ClpC1, 0.5 nM DNA; EMSA: 5 mM HEPES-KOH pH 7.5, 30 mM KCl, 1% glycerol, 10 mM MgCl2, room temperature 20 min, 12% polyacrylamide gel. To be noted: protein: recombinant; tags: untagged; label: 5'-FAM; blunt.
For the next series, the target named is T1, ClpC2 WT (Mycobacterium tuberculosis, UniProt P9WPC7 1-252).
T1 sequence: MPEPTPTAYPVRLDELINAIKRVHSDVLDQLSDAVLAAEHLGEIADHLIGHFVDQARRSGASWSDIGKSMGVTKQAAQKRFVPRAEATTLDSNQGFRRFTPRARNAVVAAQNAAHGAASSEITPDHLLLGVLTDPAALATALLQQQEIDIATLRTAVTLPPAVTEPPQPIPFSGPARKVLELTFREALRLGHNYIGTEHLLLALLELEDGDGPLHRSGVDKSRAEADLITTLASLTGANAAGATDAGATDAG
The series is described as follows: EMSA; 1-25 nM ClpC2, 0.5 nM DNA, no CymA; EMSA: 5 mM HEPES-KOH pH 7.5, 30 mM KCl, 1% glycerol, 10 mM MgCl2, room temperature 20 min, 12% polyacrylamide gel. To be noted: protein: recombinant; tags: untagged; chain copies: 2; label: 5'-FAM; blunt.

Chain of ClpC1 (P9WPC9 whole entry): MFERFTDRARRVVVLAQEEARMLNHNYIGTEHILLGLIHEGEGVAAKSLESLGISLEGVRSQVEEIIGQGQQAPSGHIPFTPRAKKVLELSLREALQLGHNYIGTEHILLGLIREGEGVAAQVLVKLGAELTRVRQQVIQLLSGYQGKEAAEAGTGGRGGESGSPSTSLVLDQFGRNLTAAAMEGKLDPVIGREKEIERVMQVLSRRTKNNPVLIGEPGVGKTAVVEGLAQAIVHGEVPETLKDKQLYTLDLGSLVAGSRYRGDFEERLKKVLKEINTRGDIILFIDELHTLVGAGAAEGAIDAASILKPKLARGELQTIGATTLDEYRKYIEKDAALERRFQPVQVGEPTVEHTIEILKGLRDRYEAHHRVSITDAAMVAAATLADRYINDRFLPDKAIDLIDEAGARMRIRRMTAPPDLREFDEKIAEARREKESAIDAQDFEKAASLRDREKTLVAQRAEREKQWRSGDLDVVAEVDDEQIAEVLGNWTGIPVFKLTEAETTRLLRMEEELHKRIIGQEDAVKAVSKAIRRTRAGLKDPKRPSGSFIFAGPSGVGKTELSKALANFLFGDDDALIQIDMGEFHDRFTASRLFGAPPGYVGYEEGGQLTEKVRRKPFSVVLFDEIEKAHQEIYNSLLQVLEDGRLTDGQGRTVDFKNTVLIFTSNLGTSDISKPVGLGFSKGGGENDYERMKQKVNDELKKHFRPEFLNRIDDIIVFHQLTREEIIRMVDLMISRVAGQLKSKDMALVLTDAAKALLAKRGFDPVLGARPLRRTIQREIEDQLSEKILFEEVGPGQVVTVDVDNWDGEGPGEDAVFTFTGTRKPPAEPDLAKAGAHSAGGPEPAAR

The term Kd denotes the constant that tells how readily two partners part at equilibrium. Turning to “ClpC1 N-terminal domain, residues 1-145 (ClpC1 NTD) (from UniProt P9WPC9 1-145) (domain or fragment)”, the Kd in series [1] is 2.3 nM.

In the case of “ClpC1: AAA+ chaperone ClpC1, purified Mtb protein”, the “affinity of ClpC1 for DNA relative to ClpC2” value in series [2] (EMSA) is on record as “at least two orders of magnitude lower affinity than exhibited by ClpC2”. Further, the “sequence specificity of ClpC1 for clpC2 operator site” value in series [2] (EMSA with unlabelled competitor DNA) was “little sequence specificity for the clpC2 operator site”. In series [2] (EMSA, 1-25 µM ClpC1, 0.5 nM DNA probe with clpC2 operator site), the “KD, ClpC1 to DNA” value is “low micromolar range”.

As a reminder, the stoichiometry N is the number of molecules, sites or subunits per partner or assembly. In series [1], “Mycobacterium tuberculosis ClpC2 (full length, wild type) (natural protein)” had a Kd of 2.2 nM and a stoichiometry N of 1.

Regarding ecumicin, in the series on ClpC1 NTD, the target binding domain result is on record as “specifically target ClpC1 NTD”.

Turning to lassomycin, the target binding domain result with ClpC1 NTD was “specifically target ClpC1 NTD”.

B1: clpC2_FAM_EMSA 41 bp operator probe (dsDNA)
DNA 1: ACAATGCATAACGTCAACCTACTGTTGACGTCATGCCGGAG
DNA 2: CTCCGGCATGACGTCAACAGTAGGTTGACGTTATGCATTGT
As for B1, the binding result with ClpC1 and with ClpC2 WT was “binds” in each case.

Values taken from paper PMC10030653, “ClpC2 protects mycobacteria against a natural antibiotic targeting ClpC1-dependent protein degradation” (Communications Biology, 2023).
